For series [1], the target named is CD3 epsilon/delta heterodimer (Homo sapiens) (UniProt P07766+P04234). Description: SPR. The conditions noted are these: kinetic.
Series [2] addresses CD3 epsilon/delta heterodimer (Macaca fascicularis) (UniProt Q95LI5+Q95LI8). Description: SPR. The conditions noted are these: steady state.
Series [3] has as its target T1, CD3 epsilon/delta heterodimer (Mus musculus) (UniProt P22646+P04235).
T1 sequence 1: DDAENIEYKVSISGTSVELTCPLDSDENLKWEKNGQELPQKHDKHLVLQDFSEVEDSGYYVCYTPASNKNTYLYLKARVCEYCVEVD
T1 sequence 2: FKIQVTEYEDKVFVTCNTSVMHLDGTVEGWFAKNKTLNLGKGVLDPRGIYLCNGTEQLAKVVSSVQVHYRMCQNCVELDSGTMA
Description: SPR. The settings on record: steady state.

Series [4] deals with CD3 epsilon/gamma heterodimer (Homo sapiens) (UniProt P07766+P09693). Kind of series: SPR. The settings on record: steady state.
Chain of CD3 epsilon/gamma heterodimer (Homo sapiens) (P07766 23-126, chain 1 of 2): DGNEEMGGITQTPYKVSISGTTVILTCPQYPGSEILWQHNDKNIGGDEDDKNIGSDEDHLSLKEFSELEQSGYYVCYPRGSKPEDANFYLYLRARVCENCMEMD
Chain of CD3 epsilon/gamma heterodimer (Homo sapiens) (P09693 23-116, chain 2 of 2): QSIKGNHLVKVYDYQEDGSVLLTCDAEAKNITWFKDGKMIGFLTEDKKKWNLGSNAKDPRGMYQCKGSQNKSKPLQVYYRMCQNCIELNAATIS
Series [5] relates to CD3 complex on Jurkat cells (Homo sapiens). Description: flow. The settings on record: apparent.

These results are taken from patent publication US20220251562.

Chain of CD3 epsilon/delta heterodimer (Homo sapiens) (P07766 23-126, stated change not applied, chain 1 of 2): as the sequence (P07766 23-126, chain 1 of 2) above
Chain of CD3 epsilon/delta heterodimer (Homo sapiens) (P04234 22-105, stated change not applied, chain 2 of 2): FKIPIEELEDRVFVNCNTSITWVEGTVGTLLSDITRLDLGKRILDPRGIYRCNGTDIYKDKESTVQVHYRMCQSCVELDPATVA
Chain of CD3 epsilon/delta heterodimer (Macaca fascicularis) (Q95LI5 22-117, stated change not applied, chain 1 of 2): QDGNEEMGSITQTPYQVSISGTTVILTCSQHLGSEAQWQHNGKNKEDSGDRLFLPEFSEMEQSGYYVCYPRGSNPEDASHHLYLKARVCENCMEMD
Chain of CD3 epsilon/delta heterodimer (Macaca fascicularis) (Q95LI8 22-105, stated change not applied, chain 2 of 2): as the sequence (P04234 22-105, stated change not applied, chain 2 of 2) above, with I5V, N15K, I20V, S32T, D33N, I34N, T64A, S74N, V83L counted along it

GGGNTTGGCNNNGGGNCTGGC [CELTIC_core]: the Kd in series [1] is 1 nM; in series [2] it was 1210 nM; in series [3] it was 591 µM; in series [4] (kinetic 845 pM (Table 8)), 427 nM; in series [5] (negligible signal on Ramos), greater than 50 nM.
On to GGGTTTGGCACCGGGCTGGC [CELTIC_core_12], for which the Kd in series [1] (_ is abasic C3 spacer at position 16) stood at 1.5 nM; in series [4] (_ is abasic C3 spacer at position 16, kinetic 1.15 pM (Table 8)), 98 nM.
GGGTTTGGCACGGGCCTGGC [CELTIC_core_24]: the Kd in series [1] (_ is abasic C3 spacer at position 11, 5'-HEG) came out at 0.041 nM; in series [4] (_ is abasic C3 spacer at position 11, 5'-HEG, kinetic 67 pM (Table 8)), 218 nM.
Take GGGTTTGGCACGGGCCTGGC [CELTIC_core_24t]: the Kd in series [1] (_ is abasic C3 spacer at position 11, 5'-HEG, 3'-3' dT) was 0.006 nM; in series [4] (_ is abasic C3 spacer at position 11, 5'-HEG, 3'-3' dT, kinetic 238 pM (Table 8)), 233 nM.
For “GGGTTTGGCACGGGCTGGC [CELTIC_core_42 5'-tetrazine]”, the Kd in series [5] (_ is abasic C3 spacer (positions 11 and 16), HEG, 5'-tetrazine-PEG5, specificity retained vs Ramos) was less than 25 nM.
For GGGTTTGGCACGGGCTGGC [CELTIC_core_42], the Kd in series [1] (_ is abasic C3 spacer at positions 11 and 16, 5'-HEG) was 0.772 nM; in series [4] (_ is abasic C3 spacer at positions 11 and 16, 5'-HEG, kinetic 277 pM (Table 8)), 194 nM; in series [5] (_ is abasic C3 spacer (positions 11 and 16), 5'-HEG, biotin at 5' or 3' end equivalent) it was less than 50 nM.
Regarding GGGTTTGGCACGGGCTGGC [CELTIC_core_42t], the Kd in series [1] (_ is abasic C3 spacer at positions 11 and 16, 5'-HEG, 3'-3' dT) was 0.275 nM; in series [4] (_ is abasic C3 spacer at positions 11 and 16, 5'-HEG, 3'-3' dT, kinetic 43 pM (Table 8)), 176 nM.
For the sequence GGGTTTGGCATCGGGCTGGC [CELTIC_core_29], the Kd stood at 0.014 nM in series [1] (_ is abasic C3 spacer at position 16, 5'-HEG) and 205 nM in series [4] (_ is abasic C3 spacer at position 16, 5'-HEG, kinetic 5.4 pM (Table 8)).
